The text below walks through data of paper PMC9343967 (Nature, 2021).

In general, stoichiometry N refers to the number of molecules, sites or subunits per partner or assembly. A word on the Kd: it is the equilibrium constant for the complex coming apart. A high value points to lower affinity.

First the molecules themselves.
B1: ALK_(TG–EGFL) (human ALK residues 648–1038) (domain or fragment, UniProt Q9UM73 648-1038, looked up)
chain: TAPKSRNLFERNPNKELKPGENSPRQTPIFDPTVHWLFTTCGASGPHGPTQAQCNNAYQNSNLSVEVGSEGPLKGIQIWKVPATDTYSISGYGAAGGKGGKNTMMRSHGVSVLGIFNLEKDDMLYILVGQQGEDACPSTNQLIQKVCIGENNVIEEEIRVNRSVHEWAGGGGGGGGATYVFKMKDGVPVPLIIAAGGGGRAYGAKTDTFHPERLENNSSVLGLNGNSGAAGGGGGWNDNTSLLWAGKSLQEGATGGHSCPQAMKKWGWETRGGFGGGGGGCSSGGGGGGYIGGNAASNNDPEMDGEDGVSFISPLGILYTPALKVMEGHGEVNIKHYLNCSHCEVDECHMDPESHKVICFCDHGTVLAEDGVSCIVSPTPEPHLPLSLILS
B3: ALKAL1 (residues 57–129, conserved C-terminal domain) (ligand, human, UniProt Q6UXT8 57-129, looked up)
chain: PSGSRSAEIFPRDSNLKDKFIKHFTGPVTFSPECSKHFHRLYYNTRECSTPAYYKRCARLLTRLAVSPLCSQT
B5: ALKAL2 (residues 78–152, conserved C-terminal domain) (ligand, human, UniProt Q6UX46 78-152, looked up)
chain: PSPEQRVEIVPRDLRMKDKFLKHLTGPLYFSPKCSKHFHRLYHNTRDCTIPAYYKRCARLLTRLAVSPVCMEDKQ

The target of assay [1] is B3. Kind of assay: SEC-MALS.
Assay [2] concerns the target B3. Kind of assay: ITC. (ITC needs no label: the signal is the heat of the interaction.)
For assay [3], the target named is B5. Kind of assay: ITC.
The target in assay [4] is B1. Kind of assay: ITC.
In assay [5] the target is T1, LTK_(TG–EGFL) (human LTK residues 63–420) (human, UniProt P29376 63-420).
T1 sequence (looked up): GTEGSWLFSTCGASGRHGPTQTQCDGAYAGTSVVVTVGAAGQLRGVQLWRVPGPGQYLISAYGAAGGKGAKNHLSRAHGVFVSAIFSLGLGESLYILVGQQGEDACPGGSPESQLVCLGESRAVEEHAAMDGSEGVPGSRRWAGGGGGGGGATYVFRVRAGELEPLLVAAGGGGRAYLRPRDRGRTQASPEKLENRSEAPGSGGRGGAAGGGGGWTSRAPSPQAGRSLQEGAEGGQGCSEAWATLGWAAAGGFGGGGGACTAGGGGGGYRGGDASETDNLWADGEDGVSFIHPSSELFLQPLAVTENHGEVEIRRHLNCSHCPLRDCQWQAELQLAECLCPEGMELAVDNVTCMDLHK
Kind of assay: ITC.

The target in assay [6] is T1, LTK_(TG–EGFL) (human LTK residues …). Kind of assay: SEC-MALS. (In general: In gel filtration, larger molecules generally elute earlier.)
The target in assay [7] is full-length ALK ectodomain (ALKFL, residues 19–1038) (human, UniProt Q9UM73 19-1038). Kind of assay: ITC.
The target in assay [8] is B1. Kind of assay: SEC-MALS.

As to B1, the “stoichiometry N” value in assay [1] worked out at 1 receptor per cytokine.

B2: ALKTG (human ALK residues 648–985) (domain or fragment, UniProt Q9UM73 648-985, looked up)
chain: TAPKSRNLFERNPNKELKPGENSPRQTPIFDPTVHWLFTTCGASGPHGPTQAQCNNAYQNSNLSVEVGSEGPLKGIQIWKVPATDTYSISGYGAAGGKGGKNTMMRSHGVSVLGIFNLEKDDMLYILVGQQGEDACPSTNQLIQKVCIGENNVIEEEIRVNRSVHEWAGGGGGGGGATYVFKMKDGVPVPLIIAAGGGGRAYGAKTDTFHPERLENNSSVLGLNGNSGAAGGGGGWNDNTSLLWAGKSLQEGATGGHSCPQAMKKWGWETRGGFGGGGGGCSSGGGGGGYIGGNAASNNDPEMDGEDGVSFISPLGILYTPALKVMEGHGEVNIKHYL
For B2, the “fold reduction of affinity on removal of EGFL (against ALK_(TG–EGFL))” value came out at 4 fold in assay [2] and 30 fold in assay [3].

As to B3, the Kd stood at 600 nM in assay [4] and 10 nM in assay [5]. Also, in assay [6], the “stoichiometry N” value was found to be 2 receptors per cytokine.

B4: purified ALKAL1^F76E (used in Ba/F3 and SEC-MALLS assays) (ligand, human, UniProt Q6UXT8 57-129, looked up)
chain: PSGSRSAEIFPRDSNLKDKEIKHFTGPVTFSPECSKHFHRLYYNTRECSTPAYYKRCARLLTRLAVSPLCSQT
Regarding B4, the “stoichiometry N” value in assay [6] stood at 1 receptor per cytokine.

As to B5, the Kd in assay [4] was found to be 40 nM; in assay [5], 55 nM. Moreover, the results for the “stoichiometry N” value in assay [7], in assay [8] and in assay [6] were 1 receptor per cytokine, 1 receptor per cytokine and 2 receptors per cytokine, respectively.

B6: purified ALKAL2^F97E (used in Ba/F3 and SEC-MALLS assays) (ligand, human, UniProt Q6UX46 78-152, looked up)
chain: PSPEQRVEIVPRDLRMKDKELKHLTGPLYFSPKCSKHFHRLYHNTRDCTIPAYYKRCARLLTRLAVSPVCMEDKQ
As for B6, the “stoichiometry N” value in assay [8] worked out at 1 receptor per cytokine.
